{
  "source": "patent US10792367B2",
  "about": "“Conjugates comprising an GLP-1/glucagon dual agonist, a linker and hyaluronic acid” (SANOFI, dated 2020)",
  "binders": {"B1": {"name": "peptide of SEQ ID NO: 6 (GLP-1/Glucagon agonist, exendin-4 derivative) (peptide)", "peptide": "H[dS]QGTFTSDLSKQK([γGlu-Stearoyl])DEQLAKDFIEWLKAGGPSSGAPPPS-NH2"}},
  "target": "human GLP-1 receptor (human, UniProt P43220)",
  "experiment": "cell-based or functional assay",
  "note": "Starred links: 1 amine or outer side, 2 acyl side, 3 side chain; linkers in the order of their positions; H or OH if unused. Non-standard residues stand in square brackets, D forms with d. Groups on a side chain read outwards from the residue. No end group written: not given here. *: point of attachment. γGlu = O=C(O)[C@H](CCC(=O)[*:2])N[*:1]; Stearoyl = CCCCCCCCCCCCCCCCCC(=O)*",
  "data": [
    {"binder": "B1", "values": [
      {"measurement": "EC50 hGLP-1R (cAMP response, HTRF)", "value": 5.1, "unit": "pM"}
    ]}
  ]
}
